This note sets out measurements from patent US20160272683A1 (Novo Nordisk, published 2016).

Assay [1] addresses rat calcitonin receptor (rat) (UniProt P32214). In words: SPA competition vs 125I-calcitonin, membranes with rat CTR (Assay VIII).
In assay [2] the target is rat amylin receptor (rat calcitonin receptor with rat RAMP 3) (rat) (UniProt P32214). Briefly: SPA competition vs 125I-rat amylin, membranes with rat CTR + rat RAMP3 (Assay VI).

What is called IC50 is the concentration that inhibits the measured activity by half.

Numbered stars: 1 amine (or outer) side, 2 acyl side, 3 side chain; on linkers, the order of the positions; unused ones are H or OH. Square brackets hold non-standard residues; d marks the D form. Side chains are listed from the residue outwards. Ends that are not written are not given here. * marks the point of attachment. C20 diacid = O=C(O)CCCCCCCCCCCCCCCCCCC(=O)*; C18 diacid = O=C(O)CCCCCCCCCCCCCCCCC(=O)*; C16 diacid = O=C(O)CCCCCCCCCCCCCCC(=O)*; γGlu = O=C(O)[C@H](CCC(=O)[*:2])N[*:1]; C14 diacid = O=C(O)CCCCCCCCCCCCC(=O)*

B1: [des1, 19K(C20 diacid-gGlu), 30S, 31G]mimylin (peptide)
peptide: ASELSTAALGRLSAELHK([γGlu-C20 diacid])LATLPRTETGSGSP-NH2
modifications: N-terminus assumed
SMILES: CC(C)C[C@H](NC(=O)[C@H](C)NC(=O)[C@H](C)NC(=O)[C@@H](NC(=O)[C@H](CO)NC(=O)[C@H](CC(C)C)NC(=O)[C@H](CCC(=O)O)NC(=O)[C@H](CO)NC(=O)[C@H](C)N)[C@@H](C)O)C(=O)NCC(=O)N[C@@H](CCCNC(=N)N)C(=O)N[C@@H](CC(C)C)C(=O)N[C@@H](CO)C(=O)N[C@@H](C)C(=O)N[C@@H](CCC(=O)O)C(=O)N[C@@H](CC(C)C)C(=O)N[C@@H](Cc1c[nH]cn1)C(=O)N[C@@H](CCCCNC(=O)CC[C@H](NC(=O)CCCCCCCCCCCCCCCCCCC(=O)O)C(=O)O)C(=O)N[C@@H](CC(C)C)C(=O)N[C@@H](C)C(=O)N[C@H](C(=O)N[C@@H](CC(C)C)C(=O)N1CCC[C@H]1C(=O)N[C@@H](CCCNC(=N)N)C(=O)N[C@H](C(=O)N[C@@H](CCC(=O)O)C(=O)N[C@H](C(=O)NCC(=O)N[C@@H](CO)C(=O)NCC(=O)N[C@@H](CO)C(=O)N1CCC[C@H]1C(N)=O)[C@@H](C)O)[C@@H](C)O)[C@@H](C)O
For B1, the IC50 in assay [1] came to 0.044 nM; in assay [2], 0.455 nM.

B2: [N-terminal(C20 diacid-gGlu), des1, 30S, 31G, 33Y]mimylin (peptide)
peptide: {C20 diacid-γGlu}-ASELSTAALGRLSAELHELATLPRTETGSGSY-NH2
SMILES: CC(C)C[C@H](NC(=O)[C@H](C)NC(=O)[C@H](C)NC(=O)[C@@H](NC(=O)[C@H](CO)NC(=O)[C@H](CC(C)C)NC(=O)[C@H](CCC(=O)O)NC(=O)[C@H](CO)NC(=O)[C@H](C)NC(=O)CC[C@H](NC(=O)CCCCCCCCCCCCCCCCCCC(=O)O)C(=O)O)[C@@H](C)O)C(=O)NCC(=O)N[C@@H](CCCNC(=N)N)C(=O)N[C@@H](CC(C)C)C(=O)N[C@@H](CO)C(=O)N[C@@H](C)C(=O)N[C@@H](CCC(=O)O)C(=O)N[C@@H](CC(C)C)C(=O)N[C@@H](Cc1c[nH]cn1)C(=O)N[C@@H](CCC(=O)O)C(=O)N[C@@H](CC(C)C)C(=O)N[C@@H](C)C(=O)N[C@H](C(=O)N[C@@H](CC(C)C)C(=O)N1CCC[C@H]1C(=O)N[C@@H](CCCNC(=N)N)C(=O)N[C@H](C(=O)N[C@@H](CCC(=O)O)C(=O)N[C@H](C(=O)NCC(=O)N[C@@H](CO)C(=O)NCC(=O)N[C@@H](CO)C(=O)N[C@@H](Cc1ccc(O)cc1)C(N)=O)[C@@H](C)O)[C@@H](C)O)[C@@H](C)O
B2: the IC50 stood at 0.023 nM in assay [1] and 0.029 nM in assay [2].

B3: [N-terminal(C20 diacid-gGlu), des1, 4G, 9V, 12K, 15Q, 21Q, 23Y, 25P, 30S, 31G, 32T, 33Y]mimylin (peptide)
peptide: {C20 diacid-γGlu}-ASGLSTAVLGKLSQELHELQTYPPTETGSGTY-NH2
SMILES: CC(C)C[C@H](NC(=O)CNC(=O)[C@H](CO)NC(=O)[C@H](C)NC(=O)CC[C@H](NC(=O)CCCCCCCCCCCCCCCCCCC(=O)O)C(=O)O)C(=O)N[C@@H](CO)C(=O)N[C@H](C(=O)N[C@@H](C)C(=O)N[C@H](C(=O)N[C@@H](CC(C)C)C(=O)NCC(=O)N[C@@H](CCCCN)C(=O)N[C@@H](CC(C)C)C(=O)N[C@@H](CO)C(=O)N[C@@H](CCC(N)=O)C(=O)N[C@@H](CCC(=O)O)C(=O)N[C@@H](CC(C)C)C(=O)N[C@@H](Cc1c[nH]cn1)C(=O)N[C@@H](CCC(=O)O)C(=O)N[C@@H](CC(C)C)C(=O)N[C@@H](CCC(N)=O)C(=O)N[C@H](C(=O)N[C@@H](Cc1ccc(O)cc1)C(=O)N1CCC[C@H]1C(=O)N1CCC[C@H]1C(=O)N[C@H](C(=O)N[C@@H](CCC(=O)O)C(=O)N[C@H](C(=O)NCC(=O)N[C@@H](CO)C(=O)NCC(=O)N[C@H](C(=O)N[C@@H](Cc1ccc(O)cc1)C(N)=O)[C@@H](C)O)[C@@H](C)O)[C@@H](C)O)[C@@H](C)O)C(C)C)[C@@H](C)O
Consider B3, for which the results for the IC50 in assay [1] and in assay [2] were 0.246 nM and 0.385 nM, respectively.

B4: [N-terminal(C20 diacid-gGlu), des1, 15e, 30S, 31G]mimylin (peptide)
peptide: {C20 diacid-γGlu}-ASELSTAALGRLS[dE]ELHELATLPRTETGSGSP-NH2
SMILES: CC(C)C[C@H](NC(=O)[C@H](C)NC(=O)[C@H](C)NC(=O)[C@@H](NC(=O)[C@H](CO)NC(=O)[C@H](CC(C)C)NC(=O)[C@H](CCC(=O)O)NC(=O)[C@H](CO)NC(=O)[C@H](C)NC(=O)CC[C@H](NC(=O)CCCCCCCCCCCCCCCCCCC(=O)O)C(=O)O)[C@@H](C)O)C(=O)NCC(=O)N[C@@H](CCCNC(=N)N)C(=O)N[C@@H](CC(C)C)C(=O)N[C@@H](CO)C(=O)N[C@H](CCC(=O)O)C(=O)N[C@@H](CCC(=O)O)C(=O)N[C@@H](CC(C)C)C(=O)N[C@@H](Cc1c[nH]cn1)C(=O)N[C@@H](CCC(=O)O)C(=O)N[C@@H](CC(C)C)C(=O)N[C@@H](C)C(=O)N[C@H](C(=O)N[C@@H](CC(C)C)C(=O)N1CCC[C@H]1C(=O)N[C@@H](CCCNC(=N)N)C(=O)N[C@H](C(=O)N[C@@H](CCC(=O)O)C(=O)N[C@H](C(=O)NCC(=O)N[C@@H](CO)C(=O)NCC(=O)N[C@@H](CO)C(=O)N1CCC[C@H]1C(N)=O)[C@@H](C)O)[C@@H](C)O)[C@@H](C)O
With B4, the IC50 in assay [1] and in assay [2] was 0.017 nM each time.
{C18 diacid}-ASELSTAALGRLSAELHELATLPRTETGSGSP-NH2 [[N-terminal(C18 diacid), des1, 30S, 31G]mimylin]: the IC50 in assay [1] was 0.013 nM; in assay [2], 0.063 nM.

B5: [N-terminal(C20 diacid-gGlu), des1, 4G, 9V, 15Q, 21Q, 23Y, 30S, 31Q, 32T, 33Y]mimylin (peptide)
peptide: {C20 diacid-γGlu}-ASGLSTAVLGRLSQELHELQTYPRTETGSQTY-NH2
SMILES: CC(C)C[C@H](NC(=O)CNC(=O)[C@H](CO)NC(=O)[C@H](C)NC(=O)CC[C@H](NC(=O)CCCCCCCCCCCCCCCCCCC(=O)O)C(=O)O)C(=O)N[C@@H](CO)C(=O)N[C@H](C(=O)N[C@@H](C)C(=O)N[C@H](C(=O)N[C@@H](CC(C)C)C(=O)NCC(=O)N[C@@H](CCCNC(=N)N)C(=O)N[C@@H](CC(C)C)C(=O)N[C@@H](CO)C(=O)N[C@@H](CCC(N)=O)C(=O)N[C@@H](CCC(=O)O)C(=O)N[C@@H](CC(C)C)C(=O)N[C@@H](Cc1c[nH]cn1)C(=O)N[C@@H](CCC(=O)O)C(=O)N[C@@H](CC(C)C)C(=O)N[C@@H](CCC(N)=O)C(=O)N[C@H](C(=O)N[C@@H](Cc1ccc(O)cc1)C(=O)N1CCC[C@H]1C(=O)N[C@@H](CCCNC(=N)N)C(=O)N[C@H](C(=O)N[C@@H](CCC(=O)O)C(=O)N[C@H](C(=O)NCC(=O)N[C@@H](CO)C(=O)N[C@@H](CCC(N)=O)C(=O)N[C@H](C(=O)N[C@@H](Cc1ccc(O)cc1)C(N)=O)[C@@H](C)O)[C@@H](C)O)[C@@H](C)O)[C@@H](C)O)C(C)C)[C@@H](C)O
On to B5, for which the IC50 in assay [1] came out at 0.016 nM; in assay [2], 0.053 nM.
The corresponding values for Ac-ASELSTAALGRLSAK([γGlu-C20 diacid])LHELATLPRTETGSGSP-NH2 [[N-terminal(acetyl), des1, 16K(C20 diacid-gGlu), 30S, 31G]mimylin] are 0.042 nM and 0.115 nM.
The corresponding values for {C14 diacid-γGlu}-ASELSTAALGRLSAELHELATLPRTETGSGSP-NH2 [[N-terminal(C14 diacid-gGlu), des1, 30S, 31G]mimylin] are 0.017 nM and 0.122 nM.
The corresponding values for {C16 diacid-γGlu}-ASELSTAALGRLSAELHELATLPRTETGSGSP-NH2 [[N-terminal(C16 diacid-gGlu), des1, 30S, 31G]mimylin] are 0.013 nM and 0.022 nM.

B6: [des1, 16K(C20 diacid-gGlu), 30S, 31G]mimylin (peptide)
peptide: ASELSTAALGRLSAK([γGlu-C20 diacid])LHELATLPRTETGSGSP-NH2
modifications: N-terminus assumed
SMILES: CC(C)C[C@H](NC(=O)[C@H](C)NC(=O)[C@H](C)NC(=O)[C@@H](NC(=O)[C@H](CO)NC(=O)[C@H](CC(C)C)NC(=O)[C@H](CCC(=O)O)NC(=O)[C@H](CO)NC(=O)[C@H](C)N)[C@@H](C)O)C(=O)NCC(=O)N[C@@H](CCCNC(=N)N)C(=O)N[C@@H](CC(C)C)C(=O)N[C@@H](CO)C(=O)N[C@@H](C)C(=O)N[C@@H](CCCCNC(=O)CC[C@H](NC(=O)CCCCCCCCCCCCCCCCCCC(=O)O)C(=O)O)C(=O)N[C@@H](CC(C)C)C(=O)N[C@@H](Cc1c[nH]cn1)C(=O)N[C@@H](CCC(=O)O)C(=O)N[C@@H](CC(C)C)C(=O)N[C@@H](C)C(=O)N[C@H](C(=O)N[C@@H](CC(C)C)C(=O)N1CCC[C@H]1C(=O)N[C@@H](CCCNC(=N)N)C(=O)N[C@H](C(=O)N[C@@H](CCC(=O)O)C(=O)N[C@H](C(=O)NCC(=O)N[C@@H](CO)C(=O)NCC(=O)N[C@@H](CO)C(=O)N1CCC[C@H]1C(N)=O)[C@@H](C)O)[C@@H](C)O)[C@@H](C)O
B6: the IC50 in assay [1] stood at 0.065 nM; in assay [2], 1.3 nM.
The corresponding values for {C16 diacid}-ASELSTAALGRLSAELHELATLPRTETGSGSP-NH2 [[N-terminal(C16 diacid), des1, 30S, 31G]mimylin] are 0.011 nM and 0.064 nM.
On to Ac-ASELSTAALGRLSAELHK([γGlu-C20 diacid])LATLPRTETGSGSP-NH2 [[N-terminal(acetyl), des1, 19K(C20 diacid-gGlu), 30S, 31G]mimylin], for which the results for the IC50 in assay [1] and in assay [2] were 0.071 nM and 0.684 nM, respectively.
The corresponding values for Ac-ASK([γGlu-C20 diacid])LSTAALGRLSAELHELATLPRTETGSGSP-NH2 [[N-terminal(acetyl), des1, 4K(C20 diacid-gGlu), 30S, 31G]mimylin] are 0.01 nM and 0.046 nM.
